Laboratory results published in patent US12485179B2, “Cholecystokinin B receptor targeting for imaging and therapy” (Purdue Research Foundation, priority 2012, dated 2025).

Tested on: HEK CCK2R tumor xenografts
Experiment: In vivo radio-imaging and bio-distribution, HEK CCK2R tumor xenografts
Parameters: species or system nu/nu mice
Experimental: In order to test the in vivo specificity of CRL-3 chelated with ^99mTc, HEK CCK2R and CCK2i4svR subcutaneous tumors were produced in nude mice according to known methods. Athymic female nu/nu mice were purchased from Harlan Laboratories and maintained on normal rodent chow and housed in a sterile environment on a standard 12 hour light and dark cycle for the duration of the study. All animal procedures were approved by the Purdue Animal Care and Use Committee in accordance with NIH guidelines.
150 microcurie of CRL-3 ^99mTc was injected intravenously into each mouse. FIGS. 3A-B show an overlay of whole-body radio-images on white light photographs of mice bearing images of HEK CCK2R (a, b) and HEK CCKRi4sv (c, d) tumor xenografts in nu/nu mice two hours after the administration of CRL-3 ^99mTc. Kidneys were shielded with a lead plate. Mice a and c had the radioactive conjugate administered along with 100 fold of free unlabeled targeting ligand. In mice b and d, only the radio-conjugate CRL-3 ^99mTc was administered. Arrows indicate location of the tumor.
Following the above radio-imaging studies, animals were dissected and selected organs/tissues were collected into pre-weighed γ-counter tubes. Radioactivity of weighed tissues and test compounds were counted in a γ-counter. CPM values were decay corrected and results were calculated as % injected dose per gram of wet tissue (% ID/g). FIGS. 4A-B show the bio-distribution of the CRL-3 ^99mTc in mice having HEK CCK2i4svR and HEK CCK2R tumors. Error bars represent the standard deviation (n=5 mice/group).
Since small molecules are often excreted via the kidneys^43, we next elected to determine whether uptake of CRL-3 ^99mTc in the kidneys might be transient. […] By 24 h post tail vein injection, tumor to tissue ratios of CRL-3 ^99mTc in the muscle, heart, skin, blood, liver, and spleen were 90, 83, 30, 61, 4 and 14, respectively (see also Table 3).

[1] = 0.5, 2, 4, 8 hours post tail vein injection

## CC(C)(C)C(=O)CN1C(=O)[C@H](NC(=O)Nc2cccc(C(=O)NCCCCCCCC(=O)N[C@H](CCC(=O)O)C(=O)N[C@H](CCC(=O)NC[C@H](O)[C@@H](O)[C@H](O)[C@H](O)CO)C(=O)N[C@H](CCC(=O)O)C(=O)N[C@H](CCC(=O)NC[C@H](O)[C@@H](O)[C@H](O)[C@H](O)CO)C(=O)NC[C@@H]3[NH][99Tc]45[S]C[C@@H](C(=O)O)[N]4C(=O)[C@H](CC(=O)O)[N]5C3=O)c2)CN(C2CCCCC2)c2ccccc21 (stereo partly shown) [CRL-3 ^99mTc]
[1]
  content of the kidneys over time (SPECT-CT): decreased significantly over time
  uptake in the tumor mass over time (SPECT-CT): relatively stable
150 microcurie i.v., two hours after administration, kidneys shielded
  accumulation of radio-conjugate, whole-body radio-image: accumulated mainly in the receptor expressing tumor with little or no accumulation in other tissues except the kidney
24 h post tail vein injection
  tumor to tissue ratio, blood: 61
  tumor to tissue ratio, heart: 83
  tumor to tissue ratio, liver: 4
  tumor to tissue ratio, muscle: 90
  tumor to tissue ratio, skin: 30
  tumor to tissue ratio, spleen: 14
0.5 h post injection
  Uptake of radioactivity, Blood: 5.8 ± 2.7 % ID/g
  Uptake of radioactivity, Brain: 0.13 % ID/g
  Uptake of radioactivity, Heart: 2.3 ± 1.5 % ID/g
  Uptake of radioactivity, Large Intestine: 1.0 ± 0.52 % ID/g
  Uptake of radioactivity, Left Kidney: 11.2 ± 6.1 % ID/g
  Uptake of radioactivity, Liver: 6.7 ± 3.6 % ID/g
  Uptake of radioactivity, Lungs: 3.2 ± 1.7 % ID/g
  Uptake of radioactivity, Muscle: 0.8 ± 0.37 % ID/g
  Uptake of radioactivity, Pancreas: 1.3 ± 0.62 % ID/g
  Uptake of radioactivity, Right Kidney: 11.4 ± 6.3 % ID/g
  Uptake of radioactivity, Skin: 2.3 ± 1.2 % ID/g
  Uptake of radioactivity, Small Intestine: 1.2 ± 0.63 % ID/g
  Uptake of radioactivity, Spleen: 2.1 ± 1.2 % ID/g
  Uptake of radioactivity, Stomach: 1.2 ± 0.61 % ID/g
  Uptake of radioactivity, Tumor: 7.4 ± 4.6 % ID/g
2 h post injection
  Uptake of radioactivity, Blood: 1.9 ± 0.97 % ID/g
  Uptake of radioactivity, Brain: 0.051 % ID/g
  Uptake of radioactivity, Heart: 0.68 ± 0.47 % ID/g
  Uptake of radioactivity, Large Intestine: 0.46 ± 0.20 % ID/g
  Uptake of radioactivity, Left Kidney: 8.4 ± 4.6 % ID/g
  Uptake of radioactivity, Liver: 2.5 ± 2.4 % ID/g
  Uptake of radioactivity, Lungs: 1.2 ± 0.55 % ID/g
  Uptake of radioactivity, Muscle: 0.29 % ID/g
  Uptake of radioactivity, Pancreas: 0.69 ± 0.84 % ID/g
  Uptake of radioactivity, Right Kidney: 7.6 ± 4.4 % ID/g
  Uptake of radioactivity, Skin: 1.0 ± 0.41 % ID/g
  Uptake of radioactivity, Small Intestine: 0.52 ± 0.28 % ID/g
  Uptake of radioactivity, Spleen: 0.69 ± 0.70 % ID/g
  Uptake of radioactivity, Stomach: 0.58 ± 0.32 % ID/g
  Uptake of radioactivity, Tumor: 8.1 ± 5.1 % ID/g
4 h post injection
  Uptake of radioactivity, Blood: 1.7 % ID/g
  Uptake of radioactivity, Brain: 0.053 % ID/g
  Uptake of radioactivity, Heart: 0.59 % ID/g
  Uptake of radioactivity, Large Intestine: 0.53 % ID/g
  Uptake of radioactivity, Left Kidney: 13.4 % ID/g
  Uptake of radioactivity, Liver: 4.1 % ID/g
  Uptake of radioactivity, Lungs: 1.0 % ID/g
  Uptake of radioactivity, Muscle: 0.3 % ID/g
  Uptake of radioactivity, Pancreas: 0.29 % ID/g
  Uptake of radioactivity, Right Kidney: 12.8 % ID/g
  Uptake of radioactivity, Skin: 1.1 % ID/g
  Uptake of radioactivity, Small Intestine: 0.52 % ID/g
  Uptake of radioactivity, Spleen: 1.4 % ID/g
  Uptake of radioactivity, Stomach: 0.56 % ID/g
  Uptake of radioactivity, Tumor: 12.0 % ID/g
8 h post injection
  Uptake of radioactivity, Blood: 0.24 % ID/g
  Uptake of radioactivity, Brain: 0.064 % ID/g
  Uptake of radioactivity, Heart: 0.14 % ID/g
  Uptake of radioactivity, Large Intestine: 0.24 % ID/g
  Uptake of radioactivity, Left Kidney: 6.0 % ID/g
  Uptake of radioactivity, Liver: 1.9 % ID/g
  Uptake of radioactivity, Lungs: 0.29 % ID/g
  Uptake of radioactivity, Muscle: 0.093 % ID/g
  Uptake of radioactivity, Pancreas: 0.10 % ID/g
  Uptake of radioactivity, Right Kidney: 5.7 % ID/g
  Uptake of radioactivity, Skin: 0.42 % ID/g
  Uptake of radioactivity, Small Intestine: 0.19 % ID/g
  Uptake of radioactivity, Spleen: 0.65 % ID/g
  Uptake of radioactivity, Stomach: 0.24 % ID/g
  Uptake of radioactivity, Tumor: 8.5 % ID/g
24 h post injection
  Uptake of radioactivity, Blood: 0.10 % ID/g
  Uptake of radioactivity, Brain: 0.0076 % ID/g
  Uptake of radioactivity, Heart: 0.076 % ID/g
  Uptake of radioactivity, Large Intestine: 0.13 % ID/g
  Uptake of radioactivity, Left Kidney: 2.6 % ID/g
  Uptake of radioactivity, Liver: 1.4 % ID/g
  Uptake of radioactivity, Lungs: 0.18 % ID/g
  Uptake of radioactivity, Muscle: 0.070 % ID/g
  Uptake of radioactivity, Pancreas: 0.053 % ID/g
  Uptake of radioactivity, Right Kidney: 2.6 % ID/g
  Uptake of radioactivity, Skin: 0.21 % ID/g
  Uptake of radioactivity, Small Intestine: 0.13 % ID/g
  Uptake of radioactivity, Spleen: 0.45 % ID/g
  Uptake of radioactivity, Stomach: 0.15 % ID/g
  Uptake of radioactivity, Tumor: 6.3 ±3.7 % ID/g
After radio-imaging, n=5 mice/group
  bio-distribution of radiotracer in organs/tissues: only the tumor and kidneys show excessive accumulation of radiotracer
